This assay has as its target T1, receptor-binding domain (RBD) of the SARS-CoV-2 spike (S) protein (SARS-CoV-2, UniProt P0DTC2).
T1 construct: not shown: His6, C-terminal, kept
Description: BLI. The settings on record: both partners purified.

By Kd is commonly meant the free concentration of one partner at which half of the binding sites on the other are occupied at equilibrium, for simple one-to-one binding. A high value points to a looser complex.

B1: CC12.1 Fab (Fab, V domains shown)
VH: EVQLVESGGGLIQPGGSLRLSCAASGLTVSSNYMSWVRQAPGKGLEWVSVIYSGGSTFYADSVKGRFTISRDNSKNTLYLQMNSLRAEDTAVYYCARDLDVYGLDVWGQGTTVTVSS
VL: DIVMTQSPSFLSASVGDRVTITCRASQGISSYLAWYQQKPGKAPKLLIYAASTLQSGVPSRFSGSGSGTEFTLTISSLQPEDFATYYCQQLNSYPPKFTFGPGTKVEIK
notes: also called Fab CC12.1
Turning to B1, the Kd turned out to be 17 nM.
